What all share (type): cell-based
Assay [1] addresses T1, U-MK2 (Homo sapiens, UniProt P49137+P63279).
T1 construct: expressed in transfected cells; host or cells: HEK293
Nature of the assay: Trans-SUMOylation by U-MK2. As to conditions: protein 2 construct coexpressed with U-MK2 and EGFP-SUMO1 in HEK293; western blot; Table 2. In general terms: Immunoblotting shows a protein as a band on a membrane.

Assay [2] concerns the target T2, U-MK5 (Homo sapiens, UniProt P63279+Q8IW41).
T2 construct: expressed in transfected cells; host or cells: HEK293
Description: Trans-SUMOylation by U-MK5. Also noted: key: (++), strong TransSUMOylation; (+), TransSUMOylation; (+/−) weak TransSUMOylation; (−) no detectable TransSUMOylation. As to conditions: protein 2 construct coexpressed with U-MK5 and EGFP-SUMO1 in HEK293; western blot; Table 2. From the text: (§1) To identify new SUMOylation substrates and to study the function of SUMOylation the Ubc9/substrate dimerisation-dependent SUMOylation system (USDDS) was developed which consists of fusions of the SUMOylation substrate and of the SUMO-conjugating enzyme Ubc9 to the chemically activatable heterodimerisation domains FKBP and FRB, respectively, as shown in FIG. 2. When the substrate protein fused to FKBP is coexpressed with Ubc9-FRB, treatment of HEK293 cells with the rapamycin-related dimerizer AP21967 induces SUMOylation of the substrate protein fused to FKBP at its specific SUMOylation site. […] Dependent on an EcoRl site in the coding sequence, seven C-terminal amino acids of the human STAT1a in the STAT1-FKBP/FRB fusion proteins are missing. For the SUMOylation analysis HEK293 (human embryonic kidney cells) cells have been used. HEK293 cells were cultured in Dulbecco's modified Eagle's medium with high glucose, complemented with 10% fetal calf serum, 2 mM L-glutamine, 100 U/ml penicillin and […] streptomycin. […]
(§2) As shown above, the SUMOylation of a protein of interest can be induced by the heterodimerisation with a binding protein fused to Ubc9. […] Therefore the protein pairs were coexpressed with EGFP-SUMO1 in HEK293 cells and after 24h the transfectants were lysed and the protein extracts were analyzed in western blots. […]

Assay [3] concerns the target T3, JUN-U (Homo sapiens, UniProt P05412+P63279).
T3 construct: expressed in transfected cells; host or cells: HEK293
Description: Trans-SUMOylation by JUN-U. Particulars: protein 2 construct coexpressed with JUN-U and EGFP-SUMO1 in HEK293; western blot; Table 2.

Assay [4] addresses T4, ERK2-U (Homo sapiens, UniProt P28482+P63279).
T4 construct: expressed in transfected cells; host or cells: HEK293
Nature of the assay: Trans-SUMOylation by ERK2-U. Particulars: protein 2 construct coexpressed with ERK2-U and EGFP-SUMO1 in HEK293; western blot; Table 2.

For assay [5], the target named is T5, U-CSNK2B (Homo sapiens, UniProt P63279+P67870).
T5 construct: expressed in transfected cells; host or cells: HEK293
Nature of the assay: Trans-SUMOylation by U-CSNK2B. Further details: key: (++), strong TransSUMOylation; (+), TransSUMOylation; (+/−) weak TransSUMOylation; (−) no detectable TransSUMOylation. Particulars: protein 2 construct coexpressed with U-CSNK2B and EGFP-SUMO1 in HEK293; western blot; Table 2.
Excerpt: as §1, §2

The target in assay [6] is T6, U-ERK2 (Homo sapiens, UniProt P28482+P63279).
T6 construct: expressed in transfected cells; host or cells: HEK293
Description: Trans-SUMOylation by U-ERK2. As to conditions: protein 2 construct coexpressed with U-ERK2 and EGFP-SUMO1 in HEK293; western blot; Table 2.

The target of assay [7] is T7, MK2-U (Homo sapiens, UniProt P49137+P63279).
T7 construct: expressed in transfected cells; host or cells: HEK293
Nature of the assay: Trans-SUMOylation by MK2-U. As to conditions: protein 2 construct coexpressed with MK2-U and EGFP-SUMO1 in HEK293; western blot; Table 2.

The target of assay [8] is T8, U-p38α (Homo sapiens, UniProt P63279+Q16539).
T8 construct: expressed in transfected cells; host or cells: HEK293
Description: Trans-SUMOylation by U-p38α. Particulars: protein 2 construct coexpressed with U-p38α and EGFP-SUMO1 in HEK293; western blot; Table 1.

Assay [9] has as its target T9, U-HDGF (Homo sapiens, UniProt P51858+P63279).
T9 construct: Ubc9 (fusion partner); expressed in transfected cells; host or cells: HEK293
Nature of the assay: Trans-SUMOylation by U-HDGF. Also noted: key: (++), strong TransSUMOylation; (+), TransSUMOylation; (+/−) weak TransSUMOylation; (−) no detectable TransSUMOylation. Particulars: protein 2 construct coexpressed with U-HDGF and EGFP-SUMO1 in HEK293; western blot; Table 2.
Excerpt: as §1, §2

The target in assay [10] is T10, U-HSF2BP (Homo sapiens, UniProt O75031+P63279).
T10 construct: expressed in transfected cells; host or cells: HEK293
Nature of the assay: Trans-SUMOylation by U-HSF2BP. As to conditions: protein 2 construct coexpressed with U-HSF2BP and EGFP-SUMO1 in HEK293; western blot; Table 2. Also noted: key: (++), strong TransSUMOylation; (+), TransSUMOylation; (+/−) weak TransSUMOylation; (−) no detectable TransSUMOylation.
Excerpt: as §1, §2

T7 sequence (P49137+P63279 fused): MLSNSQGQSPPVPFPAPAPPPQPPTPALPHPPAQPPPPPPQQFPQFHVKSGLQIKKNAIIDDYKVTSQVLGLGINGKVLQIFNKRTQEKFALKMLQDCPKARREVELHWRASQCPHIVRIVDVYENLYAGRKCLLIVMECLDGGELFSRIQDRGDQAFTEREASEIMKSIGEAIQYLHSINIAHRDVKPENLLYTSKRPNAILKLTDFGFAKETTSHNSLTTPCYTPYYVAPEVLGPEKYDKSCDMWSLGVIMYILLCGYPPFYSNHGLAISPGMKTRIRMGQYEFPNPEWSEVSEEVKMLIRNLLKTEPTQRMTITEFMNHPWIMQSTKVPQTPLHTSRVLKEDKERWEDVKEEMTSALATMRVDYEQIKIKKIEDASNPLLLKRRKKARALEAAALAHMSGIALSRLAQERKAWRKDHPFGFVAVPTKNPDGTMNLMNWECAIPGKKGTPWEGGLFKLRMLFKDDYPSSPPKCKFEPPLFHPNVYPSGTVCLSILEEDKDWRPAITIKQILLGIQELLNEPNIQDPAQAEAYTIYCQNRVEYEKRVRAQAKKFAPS
T2 sequence (P63279+Q8IW41 fused): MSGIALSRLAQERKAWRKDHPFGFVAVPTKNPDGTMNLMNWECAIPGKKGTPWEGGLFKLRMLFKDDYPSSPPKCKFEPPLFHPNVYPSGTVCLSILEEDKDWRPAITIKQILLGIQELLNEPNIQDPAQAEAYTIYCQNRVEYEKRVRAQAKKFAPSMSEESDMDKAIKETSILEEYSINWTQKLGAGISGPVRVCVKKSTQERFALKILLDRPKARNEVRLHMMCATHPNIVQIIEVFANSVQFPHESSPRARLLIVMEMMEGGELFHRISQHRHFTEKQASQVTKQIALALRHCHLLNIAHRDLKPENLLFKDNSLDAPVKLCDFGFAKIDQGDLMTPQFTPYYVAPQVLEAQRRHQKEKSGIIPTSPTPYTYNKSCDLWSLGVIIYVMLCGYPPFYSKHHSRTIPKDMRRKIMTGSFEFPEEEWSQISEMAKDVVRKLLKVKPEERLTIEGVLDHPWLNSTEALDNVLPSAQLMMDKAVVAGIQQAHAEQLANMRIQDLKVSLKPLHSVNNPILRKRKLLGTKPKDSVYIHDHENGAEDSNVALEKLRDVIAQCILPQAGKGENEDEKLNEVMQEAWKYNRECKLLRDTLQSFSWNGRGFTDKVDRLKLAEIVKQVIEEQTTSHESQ
T6 sequence (P63279+P28482 fused): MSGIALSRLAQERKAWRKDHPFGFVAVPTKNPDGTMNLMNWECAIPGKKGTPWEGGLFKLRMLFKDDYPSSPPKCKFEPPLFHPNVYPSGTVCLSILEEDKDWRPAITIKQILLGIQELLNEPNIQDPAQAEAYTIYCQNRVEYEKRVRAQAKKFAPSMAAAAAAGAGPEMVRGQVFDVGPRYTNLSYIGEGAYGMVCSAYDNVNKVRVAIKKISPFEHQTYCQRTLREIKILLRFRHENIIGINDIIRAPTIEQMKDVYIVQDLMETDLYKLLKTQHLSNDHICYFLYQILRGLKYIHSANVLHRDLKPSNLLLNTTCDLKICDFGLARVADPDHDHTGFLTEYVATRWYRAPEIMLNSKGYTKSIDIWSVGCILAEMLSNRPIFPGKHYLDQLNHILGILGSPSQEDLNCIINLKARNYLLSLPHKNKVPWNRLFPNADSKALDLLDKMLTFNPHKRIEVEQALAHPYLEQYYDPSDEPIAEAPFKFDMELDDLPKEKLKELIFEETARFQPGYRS
T1 sequence (P63279+P49137 fused): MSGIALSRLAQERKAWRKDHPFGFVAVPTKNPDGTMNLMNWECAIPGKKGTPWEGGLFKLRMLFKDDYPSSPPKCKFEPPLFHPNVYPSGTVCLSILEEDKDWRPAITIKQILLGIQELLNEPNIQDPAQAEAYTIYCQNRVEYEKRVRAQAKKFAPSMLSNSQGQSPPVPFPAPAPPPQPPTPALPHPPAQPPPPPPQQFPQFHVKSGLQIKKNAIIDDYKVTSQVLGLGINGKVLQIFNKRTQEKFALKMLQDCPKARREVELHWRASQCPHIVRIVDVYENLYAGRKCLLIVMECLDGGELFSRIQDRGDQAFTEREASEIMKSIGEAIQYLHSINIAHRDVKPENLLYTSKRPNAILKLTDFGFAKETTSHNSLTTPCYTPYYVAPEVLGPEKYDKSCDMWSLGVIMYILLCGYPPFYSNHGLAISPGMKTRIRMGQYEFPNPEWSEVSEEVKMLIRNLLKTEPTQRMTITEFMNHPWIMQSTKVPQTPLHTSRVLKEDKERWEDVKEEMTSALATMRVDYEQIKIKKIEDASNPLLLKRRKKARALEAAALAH
T8 sequence (P63279+Q16539 fused): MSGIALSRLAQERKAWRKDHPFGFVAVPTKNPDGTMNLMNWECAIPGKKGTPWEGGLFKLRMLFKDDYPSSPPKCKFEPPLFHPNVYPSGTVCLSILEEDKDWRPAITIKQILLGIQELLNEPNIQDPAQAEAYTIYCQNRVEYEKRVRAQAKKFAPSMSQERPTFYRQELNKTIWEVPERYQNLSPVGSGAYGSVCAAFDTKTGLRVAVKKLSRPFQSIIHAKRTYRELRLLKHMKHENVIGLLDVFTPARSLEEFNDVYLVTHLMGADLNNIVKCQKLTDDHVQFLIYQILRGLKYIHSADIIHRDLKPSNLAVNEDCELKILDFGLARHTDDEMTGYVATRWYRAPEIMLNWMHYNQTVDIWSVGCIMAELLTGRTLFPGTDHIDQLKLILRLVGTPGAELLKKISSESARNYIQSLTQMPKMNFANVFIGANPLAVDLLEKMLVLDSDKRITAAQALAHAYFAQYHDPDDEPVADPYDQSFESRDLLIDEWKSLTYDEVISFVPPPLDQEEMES
T10 sequence (P63279+O75031 fused): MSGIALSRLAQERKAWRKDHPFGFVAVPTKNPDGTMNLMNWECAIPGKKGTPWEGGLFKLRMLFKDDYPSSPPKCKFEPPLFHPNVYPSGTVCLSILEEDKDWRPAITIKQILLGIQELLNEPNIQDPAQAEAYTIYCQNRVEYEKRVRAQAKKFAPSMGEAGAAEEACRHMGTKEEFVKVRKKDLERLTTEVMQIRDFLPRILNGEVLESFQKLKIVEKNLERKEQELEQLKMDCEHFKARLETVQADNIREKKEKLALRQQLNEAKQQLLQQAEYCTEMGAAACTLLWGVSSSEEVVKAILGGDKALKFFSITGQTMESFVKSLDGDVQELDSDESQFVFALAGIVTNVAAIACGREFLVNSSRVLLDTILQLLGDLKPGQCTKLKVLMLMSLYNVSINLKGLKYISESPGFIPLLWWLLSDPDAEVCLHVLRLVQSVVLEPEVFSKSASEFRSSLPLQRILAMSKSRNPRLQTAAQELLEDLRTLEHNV
T4 sequence (P28482+P63279 fused): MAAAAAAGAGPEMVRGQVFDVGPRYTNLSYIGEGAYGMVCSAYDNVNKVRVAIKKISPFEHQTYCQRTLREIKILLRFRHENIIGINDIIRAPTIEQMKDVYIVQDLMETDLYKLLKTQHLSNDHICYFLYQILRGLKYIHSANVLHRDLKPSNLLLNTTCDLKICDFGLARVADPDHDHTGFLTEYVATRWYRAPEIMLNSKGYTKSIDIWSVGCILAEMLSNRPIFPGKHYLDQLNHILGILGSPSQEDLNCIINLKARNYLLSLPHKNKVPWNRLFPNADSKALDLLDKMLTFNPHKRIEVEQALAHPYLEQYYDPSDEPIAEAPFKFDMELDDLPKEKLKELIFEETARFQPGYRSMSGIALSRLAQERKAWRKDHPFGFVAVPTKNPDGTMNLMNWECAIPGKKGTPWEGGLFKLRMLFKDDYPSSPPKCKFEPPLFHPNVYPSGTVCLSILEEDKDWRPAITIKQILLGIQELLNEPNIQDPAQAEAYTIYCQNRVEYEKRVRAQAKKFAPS
T9 sequence (P63279+P51858 fused): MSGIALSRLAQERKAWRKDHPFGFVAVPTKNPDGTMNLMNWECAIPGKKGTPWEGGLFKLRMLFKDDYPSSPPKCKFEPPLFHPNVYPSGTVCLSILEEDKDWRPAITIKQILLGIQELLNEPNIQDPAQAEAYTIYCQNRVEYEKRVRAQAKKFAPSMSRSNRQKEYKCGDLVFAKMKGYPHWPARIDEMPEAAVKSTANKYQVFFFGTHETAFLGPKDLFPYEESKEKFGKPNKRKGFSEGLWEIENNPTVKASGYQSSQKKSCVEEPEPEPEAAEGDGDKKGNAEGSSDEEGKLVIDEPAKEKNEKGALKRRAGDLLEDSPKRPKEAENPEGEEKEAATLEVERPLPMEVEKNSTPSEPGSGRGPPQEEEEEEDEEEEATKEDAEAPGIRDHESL
T5 sequence (P63279+P67870 fused): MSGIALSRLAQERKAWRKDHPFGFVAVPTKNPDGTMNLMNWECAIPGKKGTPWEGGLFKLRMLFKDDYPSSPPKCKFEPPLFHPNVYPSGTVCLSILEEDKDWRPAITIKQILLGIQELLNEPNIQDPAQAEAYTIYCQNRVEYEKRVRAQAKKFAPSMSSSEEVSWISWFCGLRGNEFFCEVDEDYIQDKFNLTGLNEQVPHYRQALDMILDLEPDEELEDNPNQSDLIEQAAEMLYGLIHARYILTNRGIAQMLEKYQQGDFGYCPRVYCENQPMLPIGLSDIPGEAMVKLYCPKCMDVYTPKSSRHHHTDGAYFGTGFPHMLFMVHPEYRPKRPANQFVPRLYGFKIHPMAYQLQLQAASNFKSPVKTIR

B1: HA-MK5: MK5 fused to HA tag (protein)
chain: MSEESDMDKAIKETSILEEYSINWTQKLGAGISGPVRVCVKKSTQERFALKILLDRPKARNEVRLHMMCATHPNIVQIIEVFANSVQFPHESSPRARLLIVMEMMEGGELFHRISQHRHFTEKQASQVTKQIALALRHCHLLNIAHRDLKPENLLFKDNSLDAPVKLCDFGFAKIDQGDLMTPQFTPYYVAPQVLEAQRRHQKEKSGIIPTSPTPYTYNKSCDLWSLGVIIYVMLCGYPPFYSKHHSRTIPKDMRRKIMTGSFEFPEEEWSQISEMAKDVVRKLLKVKPEERLTIEGVLDHPWLNSTEALDNVLPSAQLMMDKAVVAGIQQAHAEQLANMRIQDLKVSLKPLHSVNNPILRKRKLLGTKPKDSVYIHDHENGAEDSNVALEKLRDVIAQCILPQAGKGENEDEKLNEVMQEAWKYNRECKLLRDTLQSFSWNGRGFTDKVDRLKLAEIVKQVIEEQTTSHESQ
modifications: left off: small tags and cut ends
notes: MK5 fused to HA tag
With B1, the Trans-SUMOylation result in assay [1] is recorded as “−”; in [2] it was “(+/−)”; in [3] it was “−”; in [4] it was “(+/−)”; in assay [5], “−”; in [6], “−”. For the same molecule, the Trans-SUMOylation result is recorded as “−” in [7] and “+” in [8].

B2: GST-HSF2BP: HSF2BP fused to GST tag (protein, UniProt O75031 1-334, looked up)
Heat shock factor 2-binding …: MGEAGAAEEACRHMGTKEEFVKVRKKDLERLTTEVMQIRDFLPRILNGEVLESFQKLKIVEKNLERKEQELEQLKMDCEHFKARLETVQADNIREKKEKLALRQQLNEAKQQLLQQAEYCTEMGAAACTLLWGVSSSEEVVKAILGGDKALKFFSITGQTMESFVKSLDGDVQELDSDESQFVFALAGIVTNVAAIACGREFLVNSSRVLLDTILQLLGDLKPGQCTKLKVLMLMSLYNVSINLKGLKYISESPGFIPLLWWLLSDPDAEVCLHVLRLVQSVVLEPEVFSKSASEFRSSLPLQRILAMSKSRNPRLQTAAQELLEDLRTLEHNV
modifications: GST tag
For B2, the Trans-SUMOylation entry in [9] is “−”; in [10] it was “+”.

For the origin of these results see patent US8551717B2, “Method for determining sumoylation” (Medizinische Hochschule Hannover, priority 2008, dated 2013).
